± gives the uncertainty stated by the source.
B1: Zinc finger homeobox protein 4, residues 2086 to 2141; numbered along this chain, Q86UP3 (parent)
chain: RPRTRITDDQLKILRAYFDINNSPSEEQIQEMAEKSGLSQKVIKHWFRNTLFKERQ

Variants of: B1
Assay: abundance fitness (aPCA) (normalised: wild type 0, dead -1); higher = more abundant; growth selection in yeast, the domain comes from the species named
Conditions: Homo sapiens

Abundance fitness: each site, then its substitutions
N22: R 0.071 ± 0.2 | G 0.014 ± 0.27 | D -0.182 ± 0.25 | S 0.281 ± 0.23 | C -0.178 ± 0.29 | P 0.201 ± 0.24 | H -0.359 ± 0.23 | I 0.204 ± 0.33 | V 0.05 ± 0.45
P24: H -0.427 ± 0.08 | C -0.462 ± 0.12 | G -0.793 ± 0.14 | D -0.844 ± 0.14 | W -0.435 ± 0.18 | S -0.553 ± 0.072 | F -0.538 ± 0.098 | Y -0.51 ± 0.087 | N -0.691 ± 0.091 | K -0.922 ± 0.15 | V -0.32 ± 0.081 | L -0.259 ± 0.067 | A -0.294 ± 0.08 | M -0.676 ± 0.12 | E -0.326 ± 0.18 | T -0.474 ± 0.084 | R -0.642 ± 0.11 | I -0.337 ± 0.092
S36: H -0.367 ± 0.13 | F -0.357 ± 0.1 | G -0.28 ± 0.064 | T -0.108 ± 0.094 | Y -0.267 ± 0.1 | Q -0.342 ± 0.11 | M -0.213 ± 0.12 | A -0.06 ± 0.077 | P -0.874 ± 0.11 | I -0.082 ± 0.15 | L -0.214 ± 0.079 | W -0.42 ± 0.084 | N -0.374 ± 0.18 | C -0.002 ± 0.1 | K -0.824 ± 0.15 | E -0.244 ± 0.085 | R -0.533 ± 0.066 | D -0.857 ± 0.13
M32: Q -0.837 ± 0.14 | F -0.547 ± 0.14 | Y -0.212 ± 0.12 | W -0.511 ± 0.083 | K -0.923 ± 0.13 | S -0.564 ± 0.08 | G -0.672 ± 0.07 | P -1.2 ± 0.24 | C -0.154 ± 0.084 | T -0.706 ± 0.14 | N -1 ± 0.2 | R -0.911 ± 0.07 | H -0.686 ± 0.14 | V -0.276 ± 0.084 | E -1.01 ± 0.15 | A -0.55 ± 0.11 | I -0.244 ± 0.12 | D -1.37 ± 0.26
Q30: D -0.495 ± 0.23 | I 0.196 ± 0.24 | C -0.275 ± 0.17 | A -0.019 ± 0.1 | T -0.025 ± 0.097 | H -0.072 ± 0.17 | N -0.08 ± 0.26 | S -0.159 ± 0.1 | G -0.116 ± 0.079 | F -0.441 ± 0.24 | K 0.146 ± 0.13 | L 0.031 ± 0.088 | E -0.154 ± 0.1 | W -0.349 ± 0.098
K35: Q -0.18 ± 0.098 | M -0.304 ± 0.092 | W -0.615 ± 0.089 | A -0.247 ± 0.091 | I -0.518 ± 0.13 | E -0.215 ± 0.1 | H -0.349 ± 0.14 | S -0.192 ± 0.077 | G -0.242 ± 0.07 | V -0.418 ± 0.078 | C -0.459 ± 0.093 | F -0.415 ± 0.11 | L -0.261 ± 0.072 | Y -0.537 ± 0.15 | D -0.375 ± 0.12 | P -1.09 ± 0.16 | N -0.265 ± 0.11
E31: Y -0.162 ± 0.14 | R -0.007 ± 0.07 | F -0.191 ± 0.11 | S -0.074 ± 0.074 | H -0.109 ± 0.14 | L -0.089 ± 0.076 | C -0.141 ± 0.099 | W -0.26 ± 0.086 | T -0.182 ± 0.12 | A -0.104 ± 0.087 | P -0.316 ± 0.11 | D -0.07 ± 0.1 | Q -0.005 ± 0.14 | K 0.108 ± 0.12 | I -0.09 ± 0.13 | G -0.106 ± 0.07 | N 0.011 ± 0.15 | V -0.031 ± 0.075
A33: Q 0.127 ± 0.27 | I 0.038 ± 0.17 | R 0.05 ± 0.13 | S -0.025 ± 0.11 | W -0.582 ± 0.42 | H 0.191 ± 0.18 | Y -0.531 ± 0.21 | D -0.337 ± 0.14 | K -0.126 ± 0.25 | P -0.84 ± 0.19 | T 0.029 ± 0.1 | G 0.056 ± 0.16 | V -0.169 ± 0.14 | C 0.181 ± 0.12 | F -0.036 ± 0.11
G37: R -0.032 ± 0.073 | H -0.137 ± 0.15 | Q -0.052 ± 0.1 | P -0.805 ± 0.11 | C -0.132 ± 0.095 | A -0.164 ± 0.076 | W -0.535 ± 0.08 | D -0.07 ± 0.097 | F -0.46 ± 0.18 | V -0.378 ± 0.072 | S -0.15 ± 0.081 | Y -0.429 ± 0.14 | K -0.054 ± 0.1 | N 0.032 ± 0.16 | T -0.083 ± 0.1 | I -0.602 ± 0.18 | M -0.06 ± 0.11 | E -0.092 ± 0.088 | L -0.014 ± 0.086
S39: T -0.135 ± 0.31 | W -1.16 ± 0.33 | M 0.217 ± 0.34 | A -0.163 ± 0.25 | L -0.767 ± 0.25 | P -0.115 ± 0.34 | R 0.007 ± 0.21 | G -0.227 ± 0.18 | E 0.127 ± 0.21 | K 0.081 ± 0.26 | F -0.323 ± 0.28 | Y -0.14 ± 0.48 | C -0.395 ± 0.17
E27: V -0.071 ± 0.14 | M 0.082 ± 0.21 | G -0.033 ± 0.096 | H -0.59 ± 0.49 | D -0.18 ± 0.29 | A 0.076 ± 0.15 | S -0.105 ± 0.17 | R -0.02 ± 0.1 | I -0.261 ± 0.38 | K -0.054 ± 0.25 | N 0.129 ± 0.38 | Q 0.142 ± 0.18 | W 0.021 ± 0.21 | T -0.185 ± 0.22 | P -0.24 ± 0.23 | Y -0.391 ± 0.29 | L -0.194 ± 0.12
I20: Q 0.054 ± 0.1 | P 0.022 ± 0.11 | N 0.03 ± 0.11 | T 0.077 ± 0.12 | K 0.153 ± 0.11 | Y -0.113 ± 0.12 | M -0.007 ± 0.13 | R -0.007 ± 0.067 | V 0.008 ± 0.069 | L -0.051 ± 0.081 | W -0.273 ± 0.09
K41: E -0.043 ± 0.093 | D 0.183 ± 0.15 | A -0.136 ± 0.084 | C 0.032 ± 0.12
L38: D -0.765 ± 0.13 | K -0.938 ± 0.15 | P -0.982 ± 0.15 | I -0.217 ± 0.14 | S -0.545 ± 0.081 | V -0.117 ± 0.069 | A -0.06 ± 0.076 | Q -0.349 ± 0.11 | F -0.793 ± 0.13 | M -0.011 ± 0.11 | E -0.557 ± 0.1 | T -0.279 ± 0.12 | N -0.769 ± 0.15 | C -0.11 ± 0.11 | R -0.746 ± 0.07 | Y -0.419 ± 0.14 | W -0.666 ± 0.083
S25: Y -0.471 ± 0.31 | F -0.468 ± 0.23 | P -0.26 ± 0.38
Q40: K 0.082 ± 0.12 | S -0.115 ± 0.082 | T -0.188 ± 0.11 | V -0.098 ± 0.074 | N -0.217 ± 0.19 | M 0.03 ± 0.095 | R -0.062 ± 0.068 | L -0.003 ± 0.071 | D -0.232 ± 0.13 | G -0.173 ± 0.069 | P -0.114 ± 0.095 | C -0.1 ± 0.095 | W -0.11 ± 0.084 | F 0.038 ± 0.16 | H -0.172 ± 0.13 | I -0.091 ± 0.12 | E -0.253 ± 0.11 | Y -0.157 ± 0.13 | A -0.14 ± 0.079
N21: T 0.009 ± 0.089 | S -0.048 ± 0.083 | F -0.191 ± 0.12 | L -0.101 ± 0.091 | D -0.028 ± 0.13 | G -0.261 ± 0.11 | A -0.031 ± 0.12 | W -0.111 ± 0.18 | I -0.114 ± 0.12 | K -0.187 ± 0.17 | P -0.494 ± 0.097 | V -0.189 ± 0.12 | H -0.117 ± 0.095 | M 0.203 ± 0.18 | C -0.09 ± 0.18 | Q -0.247 ± 0.17 | Y -0.156 ± 0.11 | E 0.122 ± 0.26
E34: Y -0.502 ± 0.2 | M -0.221 ± 0.13 | P -0.536 ± 0.14 | K -0.147 ± 0.14 | T 0.023 ± 0.11 | A -0.011 ± 0.084 | W -0.276 ± 0.098 | N -0.136 ± 0.14 | D -0.014 ± 0.1 | G 0.033 ± 0.068 | S -0.162 ± 0.083 | V -0.037 ± 0.073 | H -0.314 ± 0.16 | I -0.211 ± 0.19 | L -0.054 ± 0.085 | C -0.429 ± 0.13 | F -0.392 ± 0.12
S23: M -0.019 ± 0.14 | G -0.211 ± 0.067 | C -0.004 ± 0.1 | A 0.041 ± 0.08 | N -0.004 ± 0.18 | I -0.522 ± 0.16 | W -0.176 ± 0.093 | K -0.009 ± 0.13 | R -0.127 ± 0.08 | Q -0.011 ± 0.18 | L -0.07 ± 0.09 | P -0.003 ± 0.11 | V -0.052 ± 0.072 | H 0.187 ± 0.15 | D -0.131 ± 0.12 | T -0.071 ± 0.13 | E 0.089 ± 0.11
I29: D -0.744 ± 0.12 | F -0.02 ± 0.13 | E -0.025 ± 0.091 | A -0.376 ± 0.075 | C -0.149 ± 0.1 | T -0.266 ± 0.1 | Q -0.147 ± 0.12 | P -0.814 ± 0.14 | L 0.002 ± 0.08 | H -0.347 ± 0.25 | M -0.081 ± 0.11 | R -0.21 ± 0.068 | N -0.462 ± 0.2 | Y 0.048 ± 0.17 | W -0.16 ± 0.091 | G -0.605 ± 0.07 | K -0.226 ± 0.13
Q28: F -0.416 ± 0.18 | K 0.064 ± 0.12 | R 0.037 ± 0.065 | G -0.178 ± 0.072 | E -0.155 ± 0.12 | P -0.533 ± 0.094 | C -0.244 ± 0.089 | Y -0.236 ± 0.12 | A -0.092 ± 0.076 | N -0.329 ± 0.14 | S -0.095 ± 0.077 | T -0.034 ± 0.11 | H -0.046 ± 0.1 | I 0.06 ± 0.17 | W -0.38 ± 0.085 | D -0.12 ± 0.11 | M -0.153 ± 0.11 | V -0.033 ± 0.074 | L -0.102 ± 0.077
E26: A -0.027 ± 0.077 | T 0.133 ± 0.089 | G -0.154 ± 0.074 | V -0.056 ± 0.078 | R 0.021 ± 0.071 | W -0.322 ± 0.11 | Q -0.003 ± 0.094 | L -0.015 ± 0.079 | Y 0.048 ± 0.12 | P -0.032 ± 0.093 | K 0.039 ± 0.14 | M -0.032 ± 0.09 | F 0.111 ± 0.14 | D -0.069 ± 0.12 | S -0.076 ± 0.078 | C -0.211 ± 0.12

Reference: the Human Domainome abundance scans (Beltran et al. 2025)
